The record followed here is US11357847B2, “Modified HSV gD protein and vaccine containing same” (KM Biologics Co., Ltd., priority 2017, dated 2022).

In one data set the test system is HSV-2 MS strain. In words: Mouse infection-prevention test of modified gD (genital herpes infection model). More on the design: key to Determination (vs gD1-315) / Determination# (vs gD1-315): ++: minimum effective dose based on the Significant difference test in three-fold common ratio relative to gD1-315(WT) of two or more doses stronger; +: those of one dose stronger; ±: those of an equivalent value. Particulars: for Determination# (vs gD1-315): minimum effective dose relative to gD1-315(WT). In kind it is in vivo, BALB/c mice. As for the experimental part: Immunogenicity test of the modified gD antigen was performed using the wild-type gD antigen gD1-315 (WT) as a positive control and saline as a negative control. A predetermined amount of antigen was dissolved in saline for injection (saline) with MPLA (10 μg/mouse) and CpG (1 μg/mouse) and immunized to mice at a volume of 200 μL/mouse. BALB/c mice (5 weeks old, female) were used for the study and immunized subcutaneously in back at 2-week intervals for a total of 3 times (N=4 cases per group). Two weeks after the final immunization (third dose), blood was collected and serum was prepared for each individual. The prepared serum was serially diluted and assessed for neutralizing antibody-inducing activity against HSV-2 (50% plaque number-reducing activity).
An infection-prevention test in the preventive administration of modified gD antigen was performed using a mouse genital herpes infection model. Similar to the mouse immunogenicity test described above, mice were immunized with the number of N=10 cases per group. Depo-Provera was inoculated subcutaneously at 2 mg/mouse 6 days prior to viral inoculation to improve the multiplicity of infection upon viral inoculation 2 weeks after final immunization (third dose). 5×10^5 PFU/20 μL HSV-2 MS strain was inoculated transvaginally under anesthesia and observed for 21 days. Infection prevention ability was evaluated using survival time (survival rate) as index.
The infection model of the mouse genital herpes infection model was used to evaluate infection prevention ability of various modified gD in preventive administration. The number of animal cases in each group was set to n=10, and wild-type gD (gD1-315) was used as a positive control and saline was used as a negative control. The experiments were performed a total of four times (experiments 1-4) and four doses of 0.1 μg/mouse/time, 0.03 μg/mouse/time, 0.01 μg/mouse/time and 0.003 μg/mouse/time were set for all of the positive control, negative control, and subject modified gD antigen. Depo-Provera was inoculated subcutaneously at 2 mg/mouse 6 days prior to viral inoculation to improve the multiplicity of infection upon viral inoculation 2 weeks after final immunization (third dose). 5×10^5 PFU/20 HSV-2 MS strain was inoculated transvaginally under anesthesia and observed for 21 days. Infection prevention ability was evaluated using survival time (survival rate) as index. Mean values of those were plotted in the graph. A Significant difference test for the negative control group was performed by the Kaplan-Meier method, and those with a minimum effective dose based on the Significant difference test in three-fold common ratio relative to wild type gD of two or more doses stronger were determined to be “++”, those of one dose stronger were determined to be “+”, and those of an equivalent value were determined to be “±”.

In data set [1] the test system is various anti-gD2 antibodies. Put plainly: Reactivity of gD variants with anti-gD2 antibodies (competitive ELISA). Particulars: for Reactivity with anti-gD2 antibody 1 / Reactivity with anti-gD2 antibody 5 / Reactivity with anti-gD2 antibody 13 / Reactivity with anti-gD2 antibody 72 / Reactivity with anti-gD2 antibody 75 / Reactivity with anti-gD2 antibody 78 / Reactivity with anti-gD2 antibody 82: immobilized gD variant. In kind it is binding, human. An excerpt: Each anti-gD2 monoclonal antibody and each gD variant were expressed using an Expi293 expression system.
Background: An ELISA detects its analyte on a solid surface through an enzyme-linked reagent.

Data set [2] is described as follows: Properties of produced gD variants (aggregates). In kind it is physicochemical. Particulars: expressed and purified variant. An excerpt: Four gD1-275-based variants were produced. Since these were FR3-deficient variants, V231W mutations affecting FR3 were not investigated. […] Meanwhile, eight gD1-315-based variants were produced, and none of the variants were less than the original gD1-315 in both properties and expression level.

Where [3] appears, read: Experiment 3, 0.01 μg/head/time.
The mark [4] stands for this setting: Experiment 3, 0.03 μg/head/time.
Setting [5] is: Experiment 3, fourth dose line, 0.03 μg/head/time.
Where [6] appears, read: Experiment 4, 0.003 μg/head/time.
Setting [7] is: Experiment 4, 0.01 μg/head/time.
[8] abbreviates: Experiment 4, 0.03 μg/head/time.

Positions count from the first letter of the chain named. Names may count otherwise.

B1: gD1-315v3V: gD1-315 with glycochain at SC-F and V231W (protein)
chain: KYALADPSLKMADPNRFRGKNLPVLDQLTDPPGVKRVYHIQPSLEDPFQNASIPITVYYAVLERACRSVLLHAPSEAPQIVRGASDEARKHTYNLTIAWYRMGDNCAIPITVMEYTECPYNKSLGVCPIRTQPRWSYYDSFSAVSEDNLGFLMHAPAFETAGTYLRLVKINDWTEITQFILEHRARASCKYALPLRIPPAACLTSKAYQQGVTVDSIGMLPRFIPENQRTWALYSLKIAGWHGPKPPYTSTLLPPELSDTTNATQPELVPEDPEDSALLEDPAGTVSSQIPPNWHIPSIQDVAPHHAPAAPSNPGHHHHHH
Regarding B1, in the data set on HSV-2 MS strain (setting [3]), the “Mean survival time” value stood at 7 days and the “Significant difference test (vs saline)” value was “* (* 0.01 = < p < 0.05)”. Besides, in the data set with HSV-2 MS strain (setting [4]), the “Mean survival time” value was over 21 days and the “Significant difference test (vs saline)” value is “*** (*** p < 0.001)”. Further, in the data set with HSV-2 MS strain (Experiment 3, 0.1 μg/head/time), the “Mean survival time” value is over 21 days and the “Significant difference test (vs saline)” value is recorded as “*** (*** p < 0.001)”. For the same molecule, in the data set on HSV-2 MS strain (setting [5]), the “Mean survival time” value came to 6 days and the “Significant difference test (vs saline)” value is recorded as “N.S”. The “Determination# (vs gD1-315)” value in the data set on HSV-2 MS strain (Experiment 3) is “±”. For the same molecule, in data set [1], the “Reactivity with anti-gD2 antibody 1” value was “+ ((+): 70% or more)”, the “Reactivity with anti-gD2 antibody 5” value was “− ((−): less than 30%)”, the “Reactivity with anti-gD2 antibody 13” value is listed as “+ ((+): 70% or more)” and the “Reactivity with anti-gD2 antibody 72” value is “− ((−): less than 30%)”. For the same molecule, in data set [1], the “Reactivity with anti-gD2 antibody 75” value is recorded as “− ((−): less than 30%)”, the “Reactivity with anti-gD2 antibody 78” value was “− ((−): less than 30%)” and the “Reactivity with anti-gD2 antibody 82” value is “+ ((+): 70% or more)”.

B2: gD1-275 (protein)
chain: KYALADPSLKMADPNRFRGKNLPVLDQLTDPPGVKRVYHIQPSLEDPFQPPSIPITVYYAVLERACRSVLLHAPSEAPQIVRGASDEARKHTYNLTIAWYRMGDNCAIPITVMEYTECPYNKSLGVCPIRTQPRWSYYDSFSAVSEDNLGFLMHAPAFETAGTYLRLVKINDWTEITQFILEHRARASCKYALPLRIPPAACLTSKAYQQGVTVDSIGMLPRFIPENQRTVALYSLKIAGWHGPKPPYTSTLLPPELSDTTNATQPELVPEDPED
As for B2, in data set [1], the “Reactivity with anti-gD2 antibody 1” value is listed as “− ((−): less than 30%)”, the “Reactivity with anti-gD2 antibody 5” value is on record as “+ ((+): 70% or more)”, the “Reactivity with anti-gD2 antibody 13” value is reported as “+ ((+): 70% or more)” and the “Reactivity with anti-gD2 antibody 72” value is reported as “+ ((+): 70% or more)”. Further, in data set [1], the “Reactivity with anti-gD2 antibody 75” value was “+ ((+): 70% or more)”, the “Reactivity with anti-gD2 antibody 78” value is “+ ((+): 70% or more)” and the “Reactivity with anti-gD2 antibody 82” value was “+ ((+): 70% or more)”. In data set [2], the “Properties of the variant (aggregates)” value is “Aggregation”.

B3: gD1-275v3: gD1-275 with glycochain at P50 (SC-F) (protein)
chain: KYALADPSLKMADPNRFRGKNLPVLDQLTDPPGVKRVYHIQPSLEDPFQNASIPITVYYAVLERACRSVLLHAPSEAPQIVRGASDEARKHTYNLTIAWYRMGDNCAIPITVMEYTECPYNKSLGVCPIRTQPRWSYYDSFSAVSEDNLGFLMHAPAFETAGTYLRLVKINDWTEITQFILEHRARASCKYALPLRIPPAACLTSKAYQQGVTVDSIGMLPRFIPENQRTVALYSLKIAGWHGPKPPYTSTLLPPELSDTTNATQPELVPEDPEDHHHHHH
Consider B3, for which, in data set [1], the “Reactivity with anti-gD2 antibody 1” value was “− ((−): less than 30%)”, the “Reactivity with anti-gD2 antibody 5” value was “− ((−): less than 30%)”, the “Reactivity with anti-gD2 antibody 13” value is “− ((−): less than 30%)” and the “Reactivity with anti-gD2 antibody 72” value was “− ((−): less than 30%)”. Besides, in data set [1], the “Reactivity with anti-gD2 antibody 75” value is given as “− ((−): less than 30%)”, the “Reactivity with anti-gD2 antibody 78” value is reported as “− ((−): less than 30%)” and the “Reactivity with anti-gD2 antibody 82” value is “+ ((+): 70% or more)”. In data set [2], the “Properties of the variant (aggregates)” value is “no change in properties”.

B4: gD1-275v5: gD1-275 with glycochains at R186 (SC-A) and P50 (SC-F) (protein)
chain: B3 chain with R186N
B4: the “Relative reactivity with antibody No. 82 (gD1-315 wild-type set to 1)” value in data set [1] (FIG. 13) is on record as “substantially similar reactivity”. In addition, in data set [1], the “Reactivity with anti-gD2 antibody 1” value was “− ((−): less than 30%)”, the “Reactivity with anti-gD2 antibody 5” value is “− ((−): less than 30%)”, the “Reactivity with anti-gD2 antibody 13” value is on record as “− ((−): less than 30%)” and the “Reactivity with anti-gD2 antibody 72” value is reported as “+ ((+): 70% or more)”. Moreover, in data set [1], the “Reactivity with anti-gD2 antibody 75” value is “− ((−): less than 30%)”, the “Reactivity with anti-gD2 antibody 78” value is “− ((−): less than 30%)” and the “Reactivity with anti-gD2 antibody 82” value is “+ ((+): 70% or more)”. For the same molecule, the “Properties of the variant (aggregates)” value in data set [2] is listed as “no change in properties”.

B5: gD1-275v3-55: gD1-275 with glycochain at SC-F, linked to T cell epitope peptide DP5 (protein)
chain: KYALADPSLKMADPNRFRGKNLPVLDQLTDPPGVKRVYHIQPSLEDPFQNASIPITVYYAVLERACRSVLLHAPSEAPQIVRGASDEARKHTYNLTIAWYRMGDNCAIPITVMEYTECPYNKSLGVCPIRTQPRWSYYDSFSAVSEDNLGFLMHAPAFETAGTYLRLVKINDWTEITQFILEHRARASCKYALPLRIPPAACLTSKAYQQGVTVDSIGMLPRFIPENQRTVALYSLKIAGWHGPKPPYTSTLLPPELSDTTNATQPELVPEDPEDGPGPGIAFWVRRRAQMAPKPLRIAFWVRRRAQMAPKPLRHHHHHH
modifications: left off: small tags and cut ends
B5: in the data set with HSV-2 MS strain (setting [6]), the “Mean survival time” value was 7 days and the “Significant difference test (vs saline)” value was “N.S”. In the data set with HSV-2 MS strain (setting [7]), the “Mean survival time” value amounted to 7.5 days and the “Significant difference test (vs saline)” value is “N.S”. Also, in the data set on HSV-2 MS strain (setting [8]), the “Mean survival time” value was over 21 days and the “Significant difference test (vs saline)” value is recorded as “** (** 0.001 = < p < 0.01)”. In the data set on HSV-2 MS strain (Experiment 4, 0.1 μg/head/time), the “Mean survival time” value is listed as over 21 days and the “Significant difference test (vs saline)” value is “** (** 0.001 = < p < 0.01)”. For the same molecule, the “Determination# (vs gD1-315)” value in the data set with HSV-2 MS strain (Experiment 4) is recorded as “+”. Also, in data set [1], the “Reactivity with anti-gD2 antibody 1” value was “− ((−): less than 30%)”, the “Reactivity with anti-gD2 antibody 5” value is “− ((−): less than 30%)”, the “Reactivity with anti-gD2 antibody 13” value is “− ((−): less than 30%)” and the “Reactivity with anti-gD2 antibody 72” value is “− ((−): less than 30%)”. For the same molecule, in data set [1], the “Reactivity with anti-gD2 antibody 75” value is reported as “− ((−): less than 30%)”, the “Reactivity with anti-gD2 antibody 78” value was “− ((−): less than 30%)” and the “Reactivity with anti-gD2 antibody 82” value is on record as “+ ((+): 70% or more)”. Moreover, the “Properties of the variant (aggregates)” value in data set [2] is “presence of aggregates was confirmed”.
